The values below come from patent publication US6677433B2 (The Regents of the University of California, priority 2001, dated 2004).

Experiment [1] has as its target T1, Fructose Bisphosphatase (Spinacia oleracea, UniProt P22418).
T1 construct: fructose-1,6-bisphosphatase (FBPase) were purified from leaves of corn (Jacquot, J.-P. et al. (1981), Plant Physiol. 68:300-304) and spinach; from tissue; host or cells: spinach leaves
T1 sequence (P22418 58-415): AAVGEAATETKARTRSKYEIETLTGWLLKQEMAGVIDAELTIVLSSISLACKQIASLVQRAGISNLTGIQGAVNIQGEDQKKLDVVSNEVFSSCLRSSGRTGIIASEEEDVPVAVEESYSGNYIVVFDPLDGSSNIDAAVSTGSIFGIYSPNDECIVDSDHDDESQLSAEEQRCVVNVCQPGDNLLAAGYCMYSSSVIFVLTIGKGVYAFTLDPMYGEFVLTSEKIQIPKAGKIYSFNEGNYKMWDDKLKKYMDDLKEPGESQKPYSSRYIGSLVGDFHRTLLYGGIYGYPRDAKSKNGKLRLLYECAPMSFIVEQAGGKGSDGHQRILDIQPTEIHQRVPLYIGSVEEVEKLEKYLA
Briefly: Activation of chloroplast fructose bisphosphatase by thioredoxin-reduced proteins. In kind it is biochemical, spinach. The following applies: standard DTT assay, 1 μg E. coli thioredoxin, 20 μg protein; corrected for thioredoxin alone. The method, then: (§1) The NADP-MDH, FBPase, NTR and Thioredoxin h assay methods were according to Florencio, F. J. et al. (1988), Arch. Biochem. Biophys. 266:496-507 with slight modifications as indicated. For enzyme activation assays, the preincubation time was 20 min unless specified otherwise.
(§2) The capability to replace a specific thioredoxin in the activation of chloroplast enzymes is one test for the ability of thiol groups of a given protein to undergo reversible redox change. […] A case in point is purothionin which, when reduced by thioredoxin h activates chloroplast FBPase (Wada, K. et al. (1981), FEBS Lett. 124:237-240, and Johnson, T. C. et al. (1987), Plant Physiol. 85:446-451). The FBPase, whose physiological activator is thioredoxin f, is unaffected by thioredoxin h. In this Example, the ability of cystine-rich proteins to activate FBPase as well as NADP-MDH was tested as set forth above. […]
(§3) The Wada et al., 1981 protocol was used for assaying NADP-malate dehydrogenase and fructose 1,6 bisphosphatase in the presence of thioredoxin and 2S protein. […] The 2S protein was monitored during purification by mBBr/SDS-polyacrylamide gel electrophoresis following its reduction by dithiothreitol and E. coli thioredoxin (Crawford et al., 1989; Kobrehel et al., 1991).

Experiment [2] concerns the target T2, glutaredoxin (Escherichia coli, UniProt P68688).
T2 construct: gift of Professor A. Holmgren
T2 sequence (P68688 1-85): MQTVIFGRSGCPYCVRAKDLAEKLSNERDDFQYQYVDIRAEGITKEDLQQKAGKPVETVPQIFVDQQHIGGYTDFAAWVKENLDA
Briefly: Reduction by glutaredoxin relative to thioredoxin (mBBr/SDS-PAGE, densitometric scanning). The format is biochemical. The note with it: glutathione reductase, NADPH. The method, then: Direct reduction of the proteins under study was determined by a modification of the method of Crawford et al. (Crawford, N. A. et al. (1989), Arch. Biochem. Biophys. 271:223-239). The reaction was carried out in 100 mM potassium phosphate buffer, pH 7.1, containing 10 mM EDTA and 16% glycerol in a final volume of 0.1 ml. As indicated, 0.7 μg (0.1 μM) NTR and 1 μg (0.8 μM) thioredoxin (both routinely from E. coli were added to 70 μl of the buffer solution containing 1 mM NADPH and 10 μg (2 to 17 μM) of target protein. When thioredoxin was reduced by dithiothreitol (DTT, 0.5 mM), NADPH and NTR were omitted. Assays with reduced glutathione were performed similarly, but at a final concentration of 1 mM. After incubation for 20 min, 100 nmoles of mBBr were added and the reaction was continued for another 15 min. To stop the reaction and derivatize excess mBBr, 10 μl of 10% SDS and 10 μl of 100 mM β-mercaptoethanol were added and the samples were then applied to the gels. […]
This ability was tested, using glutaredoxin from E. coli and the seed proteins currently under study. Reduction activity was monitored by the mBBr/SDS polyacrylamide gel electrophoresis procedure coupled with densitometric scanning.

The target in experiment [3] is NADP/thioredoxin system (Escherichia coli, UniProt P0AA25). The method, then:
Direct reduction of the proteins under study was determined by a modification of the method of Crawford et al. (Crawford, N. A. et al. (1989), Arch. Biochem. Biophys. 271:223-239). The reaction was carried out in 100 mM potassium phosphate buffer, pH 7.1, containing 10 mM EDTA and 16% glycerol in a final volume of 0.1 ml. As indicated, 0.7 μg (0.1 μM) NTR and 1 μg (0.8 μM) thioredoxin (both routinely from E. coli were added to 70 μl of the buffer solution containing 1 mM NADPH and 10 μg (2 to 17 μM) of target protein. When thioredoxin was reduced by dithiothreitol (DTT, 0.5 mM), NADPH and NTR were omitted. Assays with reduced glutathione were performed similarly, but at a final concentration of 1 mM. After incubation for 20 min, 100 nmoles of mBBr were added and the reaction was continued for another 15 min. To stop the reaction and derivatize excess mBBr, 10 μl of 10% SDS and 10 μl of 100 mM β-mercaptoethanol were added and the samples were then applied to the gels. In the case of reduction by glutaredoxin, the thioredoxin and NTR were replaced by 1 μg (0.8 μM) E. coli glutaredoxin, 1.4 μg (0.14 μM) glutathione reductase purified from spinach leaves (Florencio, F. J. et al. (1988), Arch. Biochem. Biophys. 266:496-507) and 1.5 mM NADPH was used.

Experiment [4] has as its target T3, NADP-Malate Dehydrogenase (Zea mays, UniProt P15719).
T3 construct: NADP-malate dehydrogenase (NADP-MDH) and fructose-1,6-bisphosphatase (FBPase) were purified from leaves of corn; from tissue; host or cells: corn leaves
T3 sequence (P15719 whole entry, looked up): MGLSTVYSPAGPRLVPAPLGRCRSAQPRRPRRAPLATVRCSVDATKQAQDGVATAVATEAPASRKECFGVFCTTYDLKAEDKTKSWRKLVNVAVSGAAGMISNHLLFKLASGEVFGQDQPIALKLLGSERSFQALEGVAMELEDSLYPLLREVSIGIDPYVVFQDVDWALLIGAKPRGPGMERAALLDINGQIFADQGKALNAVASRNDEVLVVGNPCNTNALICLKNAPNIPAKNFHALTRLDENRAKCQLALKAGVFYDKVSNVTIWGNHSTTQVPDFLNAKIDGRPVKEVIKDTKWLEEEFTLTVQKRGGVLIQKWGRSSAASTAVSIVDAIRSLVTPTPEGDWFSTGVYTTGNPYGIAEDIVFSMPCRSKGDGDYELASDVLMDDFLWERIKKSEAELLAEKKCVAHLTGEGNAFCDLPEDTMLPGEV
Kind of experiment: Activation of chloroplast NADP-malate dehydrogenase by thioredoxin-reduced proteins. In kind it is biochemical, corn. The note with it: 20 μg protein; DTT→Thioredoxin→Indicated Protein→Target Enzyme. The method, then:
as §1, §2, §3

B1: Soybean Kunitz: Kunitz soybean trypsin inhibitor (protein, UniProt P01070 25-205, looked up)
Trypsin inhibitor A: DFVLDNEGNPLENGGTYYILSDITAFGGIRAAPTGNERCPLTVVQSRNELDKGIGTIISSPYRIRFIAEGHPLSLKFDSFAVIMLCVGIPTEWSVVEDLPEGPAVKIGENKDAMDGWFRLERVSDDEFNNYKLVFCPQQAEDDKCGDIGISIDHDDGTRRLVVSKNKPLVVQFQKLDKESL
With B1, in experiment [1], the “ACTIVITY, FBPase” value is on record as 0 nkat/mg. In experiment [2], the “percentage reduction relative to E. coli thioredoxin” value is “ineffective”. Further, in experiment [3], the “% Reduction After 20 min” value amounted to 14% and the “% Reduction After 120 min” value amounted to 22%. Also, in experiment [4], the “ACTIVITY, NADP-MDH” value is 2 nkat/mg.
